Among the data in US20240376170A1 are Average EC50 (nM), HEK-Blue IL-2R (CD122+, CD132+) Reporter Assay values, retold here.

B1: CMP-159, MMP2 cleaved (ligand)
chain: PLGLAGAPTSSSTKKTQLQLEHLLLDLE[Nle]ILNGINNYKNPKLTR[Nle]L[hSer][Yn3(4)]KF[Ygp(4)][Nle]PKKATELKHLQCLEEELKPLEEVL[hSer]LAQSKNFHLRPRDLISNINVIVLELKGSETTF[hSer]CEYADETATIVEFLNRWITFSQSIISTLT
modifications: linker N-28 via PEG4′; not fully specified (N-terminus); ends not checked; also: cut by MMP2 in the PLGLAG linker, site not given here, ring opened
B2: CMP-152 (ligand)
chain: PLGLAGAPTSSSTKKTQLQLEHLLLDLQXILNGINNYKNPKLTRXLXYKFYXPKKATELKHLQCLEEELKPLEEVLXLAQSKNFHLRPRDLISNINVIVLELKGSETTFXCEYADETATIVEFLNRWITFSQSIISTLT
modifications: not fully specified; Nle, Hse, Yn3 (Tyr with azide-capped PEG9), Ygp (Tyr with amino-capped PEG8) as printed in Table 3; PEG9-PLGLAG on the N-terminus, cyclised through glutaryl to the side chain of Lys 32
B3: CMP-154, MMP2 cleaved (ligand)
chain: PLGLAGAPTSSSTKKTQLQLEHLLLDLQ[Nle]ILNGIENYKNPKLTR[Nle]L[hSer][Yn3(4)]KF[Ygp(4)][Nle]PKKATELKHLQCLEEELKPLEEVL[hSer]LAQSKNFHLRPRDLISNINVIVLELKGSETTF[hSer]CEYADETATIVEFLNRWITFSQSIISTLT
modifications: linker N-35 via PEG9′; not fully specified (N-terminus); ends not checked; also: cleavable peptide cut by MMP2, site not given here
B4: CMP-154 (ligand)
chain: PLGLAGAPTSSSTKKTQLQLEHLLLDLQ[Nle]ILNGIENYKNPKLTR[Nle]L[hSer][Yn3(4)]KF[Ygp(4)][Nle]PKKATELKHLQCLEEELKPLEEVL[hSer]LAQSKNFHLRPRDLISNINVIVLELKGSETTF[hSer]CEYADETATIVEFLNRWITFSQSIISTLT
modifications: linker N-35 via PEG9′; not fully specified (N-terminus); ends not checked
B5: CMP-152, MMP2 cleaved (ligand)
chain: PLGLAGAPTSSSTKKTQLQLEHLLLDLQ[Nle]ILNGINNYKNPKLTR[Nle]L[hSer][Yn3(4)]KF[Ygp(4)][Nle]PKKATELKHLQCLEEELKPLEEVL[hSer]LAQSKNFHLRPRDLISNINVIVLELKGSETTF[hSer]CEYADETATIVEFLNRWITFSQSIISTLT
modifications: linker N-38 via glutaryl‑PEG9; not fully specified (N-terminus); ends not checked; also: cleavable peptide cut by MMP2, site not given here
B6: CMP-161 (ligand)
chain: PLGLAGAPTSSSTKKTQLQLEHLLLDLQ[Nle]ILEGINNYKNPKLTR[Nle]L[hSer][Yn3(4)]KF[Ygp(4)][Nle]PKKATELKHLQCLEEELKPLEEVL[hSer]LAQSKNFHLRPRDLISNINVIVLELKGSETTF[hSer]CEYADETATIVEFLNRWITFSQSIISTLT
modifications: linker N-32 via PEG9″; not fully specified (N-terminus); ends not checked
B7: CMP-159 (ligand)
chain: PLGLAGAPTSSSTKKTQLQLEHLLLDLE[Nle]ILNGINNYKNPKLTR[Nle]L[hSer][Yn3(4)]KF[Ygp(4)][Nle]PKKATELKHLQCLEEELKPLEEVL[hSer]LAQSKNFHLRPRDLISNINVIVLELKGSETTF[hSer]CEYADETATIVEFLNRWITFSQSIISTLT
modifications: linker N-28 via PEG4′; not fully specified (N-terminus); ends not checked
B8: CMP-161, MMP2 cleaved (ligand)
chain: PLGLAGAPTSSSTKKTQLQLEHLLLDLQ[Nle]ILEGINNYKNPKLTR[Nle]L[hSer][Yn3(4)]KF[Ygp(4)][Nle]PKKATELKHLQCLEEELKPLEEVL[hSer]LAQSKNFHLRPRDLISNINVIVLELKGSETTF[hSer]CEYADETATIVEFLNRWITFSQSIISTLT
modifications: not fully specified (N-terminus, bridges); ends and bridges not checked; also: cut by MMP2 in the PLGLAG linker, site not given here, ring opened

Bridges are numbered along the chain shown (N, C = ends). Primed or numbered codes have the meaning given here. [ ]: non-standard residue; d: D form. Ygp(4) = Tyr with amino-capped PEG8 (O-(8x polyethylene glycol-amino)-tyrosine); Yn3(4) = Tyr with azide-capped PEG9 (O-(9x polyethylene glycol-azido)-tyrosine); PEG9″ = 9x polyethylene glycol spacer; PEG4′ = 4x polyethylene glycol; PEG9′ = 9x polyethylene glycol; hSer = N[C@@H](CCO)C(=O)O; Nle = CCCC[C@H](N)C(=O)O

Sequence of IL-2Rβγ (CD122+, CD132+) on HEK-Blue IL-2Rβγ reporter cells (P14784 27-551 limits assumed, chain 1 of 2): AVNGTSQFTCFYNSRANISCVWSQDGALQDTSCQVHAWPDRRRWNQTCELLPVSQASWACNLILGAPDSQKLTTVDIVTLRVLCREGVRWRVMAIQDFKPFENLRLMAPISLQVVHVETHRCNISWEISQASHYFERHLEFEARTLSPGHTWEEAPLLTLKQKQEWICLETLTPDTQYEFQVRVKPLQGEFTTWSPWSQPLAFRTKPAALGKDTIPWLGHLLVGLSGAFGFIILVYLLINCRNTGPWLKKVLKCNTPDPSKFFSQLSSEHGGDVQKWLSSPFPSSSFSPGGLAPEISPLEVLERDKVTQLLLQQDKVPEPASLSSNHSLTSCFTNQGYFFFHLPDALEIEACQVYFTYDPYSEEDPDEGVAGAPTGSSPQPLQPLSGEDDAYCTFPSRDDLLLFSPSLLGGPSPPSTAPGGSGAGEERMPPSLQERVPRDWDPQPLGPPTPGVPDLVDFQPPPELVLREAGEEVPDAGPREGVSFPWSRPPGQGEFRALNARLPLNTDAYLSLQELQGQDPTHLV
Sequence of IL-2Rβγ (CD122+, CD132+) on HEK-Blue IL-2Rβγ reporter cells (P31785 23-369 limits assumed, chain 2 of 2, further chain): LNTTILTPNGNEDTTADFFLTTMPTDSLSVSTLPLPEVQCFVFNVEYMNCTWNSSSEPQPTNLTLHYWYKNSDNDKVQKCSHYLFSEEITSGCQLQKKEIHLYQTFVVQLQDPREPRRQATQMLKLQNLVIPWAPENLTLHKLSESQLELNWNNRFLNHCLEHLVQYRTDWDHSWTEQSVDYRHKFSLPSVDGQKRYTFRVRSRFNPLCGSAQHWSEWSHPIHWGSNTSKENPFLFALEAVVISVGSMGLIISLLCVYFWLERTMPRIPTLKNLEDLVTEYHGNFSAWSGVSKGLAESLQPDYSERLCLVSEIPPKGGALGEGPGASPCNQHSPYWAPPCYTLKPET

The assay addresses IL-2Rβγ (CD122+, CD132+) on HEK-Blue IL-2Rβγ reporter cells (UniProt P14784). Description: cell-based or functional assay.
Molecule B1 yielded an Average EC50 (nM), HEK-Blue IL-2R (CD122+, CD132+) Reporter Assay of 0.0071 nM.

As for B2, the Average EC50 (nM), HEK-Blue IL-2R (CD122+, CD132+) Reporter Assay is 0.0597 nM.

Consider B3, for which the Average EC50 (nM), HEK-Blue IL-2R (CD122+, CD132+) Reporter Assay amounted to 0.0059 nM.

B4: the Average EC50 (nM), HEK-Blue IL-2R (CD122+, CD132+) Reporter Assay stood at 0.106 nM.

Consider B5, for which the Average EC50 (nM), HEK-Blue IL-2R (CD122+, CD132+) Reporter Assay came to 0.0064 nM.

B6 returned an Average EC50 (nM), HEK-Blue IL-2R (CD122+, CD132+) Reporter Assay of 0.168 nM.

Consider B7, for which the Average EC50 (nM), HEK-Blue IL-2R (CD122+, CD132+) Reporter Assay amounted to 0.192 nM.

Molecule B8 gave an Average EC50 (nM), HEK-Blue IL-2R (CD122+, CD132+) Reporter Assay of 0.0118 nM.
